In the array DNA melting data of Ke et al. one finds Tm data, which are given here for 47 substances.

The nature of the data set: melting temperature; melt of duplexes. The conditions noted are these: sodium 0.0675 M; strand 1 µM.
One may read the Tm as the temperature at which the thermal transition is half complete. As to “CGACGTGCCTCATGTGCTG+CAGCACATGGCGCACGTCG ((((((((..(((((((((+)))))))))..))))))))”, the Tm was 52.5 °C.

As to “CGACGTGCCTCATGTGCTG+CAGCACATCGCGCACGTCG ((((((((...((((((((+))))))))...))))))))”, the melting temperature (Tm) was 46.6 °C.

As to “CGACGTGCGTAATGTGCTG+CAGCACATGAGGCACGTCG ((((((((.(.((((((((+)))))))).).))))))))”, the midpoint of thermal melting (Tm) was determined as 53.6 °C.

Take “CGACGTGCCCAATGTGCTG+CAGCACATGAGGCACGTCG (((((((((..((((((((+))))))))..)))))))))”: the Tm was 56.1 °C.

With “CGACGTGCACTATGTGCTG+CAGCACATATTGCACGTCG (((((((((.(((((((((+))))))))).)))))))))”, the Tm worked out at 51.5 °C.

Turning to “CGACGTGCAGAATGTGCTG+CAGCACATCTCGCACGTCG ((((((((...((((((((+))))))))...))))))))”, the midpoint of thermal melting (Tm) turned out to be 51.6 °C.

With “CGACGTGCCATATGTGCTG+CAGCACATGGCGCACGTCG ((((((((...((((((((+))))))))...))))))))”, the Tm came to 50.3 °C.

Regarding “CGACGTGCAGAATGTGCTG+CAGCACATGTAGCACGTCG ((((((((...((((((((+))))))))...))))))))”, the Tm was determined as 53.4 °C.

Take “CGACGTGCGAAATGTGCTG+CAGCACATGCGGCACGTCG ((((((((...((((((((+))))))))...))))))))”: the Tm was 51.7 °C.

For “CGACGTGCAAGATGTGCTG+CAGCACATGTGGCACGTCG ((((((((.(.((((((((+)))))))).).))))))))”, the Tm amounted to 52.8 °C.

Consider “CGACGTGCACGATGTGCTG+CAGCACATCTGGCACGTCG ((((((((..(((((((((+)))))))))..))))))))”, for which the Tm was determined as 53.6 °C.

“CGACGTGCGGCATGTGCTG+CAGCACATGATGCACGTCG ((((((((..(((((((((+)))))))))..))))))))”: the Tm was determined as 58.7 °C.

As to “CGACGTGCTGGATGTGCTG+CAGCACATGAGGCACGTCG ((((((((...((((((((+))))))))...))))))))”, the midpoint of thermal melting (Tm) came out at 54 °C.

For the substance “CGACGTGCCCTATGTGCTG+CAGCACATGCCGCACGTCG ((((((((...((((((((+))))))))...))))))))”, the midpoint of thermal melting (Tm) was determined as 47.7 °C.

Regarding “CGACGTGCTGCATGTGCTG+CAGCACATTCGGCACGTCG ((((((((.(.((((((((+)))))))).).))))))))”, the Tm turned out to be 53.2 °C.

Consider “CGACGTGCATGATGTGCTG+CAGCACATGGCGCACGTCG ((((((((...((((((((+))))))))...))))))))”, for which the Tm is 48.1 °C.

With “CGACGTGCCGCATGTGCTG+CAGCACATTGTGCACGTCG ((((((((...((((((((+))))))))...))))))))”, the Tm was found to be 45.7 °C.

For “CGACGTGCTGTATGTGCTG+CAGCACATTACGCACGTCG ((((((((...((((((((+))))))))...))))))))”, the melting temperature (Tm) came out at 51 °C.

For the substance “CGACGTGCGACATGTGCTG+CAGCACATACAGCACGTCG ((((((((...((((((((+))))))))...))))))))”, the midpoint of thermal melting (Tm) was found to be 53.1 °C.

As to “CGACGTGCCCGATGTGCTG+CAGCACATGCAGCACGTCG ((((((((...((((((((+))))))))...))))))))”, the melting temperature (Tm) was 49.6 °C.

Consider “CGACGTGCGACATGTGCTG+CAGCACATGGGGCACGTCG ((((((((..(((((((((+)))))))))..))))))))”, for which the Tm was found to be 58.4 °C.

In the case of “CGACGTGCATCATGTGCTG+CAGCACATGTAGCACGTCG ((((((((..(((((((((+)))))))))..))))))))”, the midpoint of thermal melting (Tm) came out at 55.3 °C.

With “CGACGTGCACAATGTGCTG+CAGCACATTTGGCACGTCG ((((((((..(((((((((+)))))))))..))))))))”, the midpoint of thermal melting (Tm) is 51.2 °C.

Regarding “CGACGTGCCAGATGTGCTG+CAGCACATTCCGCACGTCG ((((((((...((((((((+))))))))...))))))))”, the midpoint of thermal melting (Tm) came to 49.6 °C.

Regarding “CGACGTGCCTCATGTGCTG+CAGCACATCAGGCACGTCG ((((((((((.((((((((+)))))))).))))))))))”, the melting temperature (Tm) came out at 55 °C.

For “CGACGTGCCGGATGTGCTG+CAGCACATGCCGCACGTCG ((((((((.(.((((((((+)))))))).).))))))))”, the Tm was determined as 53.4 °C.

As for “CGACGTGCGCAATGTGCTG+CAGCACATGGAGCACGTCG ((((((((.(.((((((((+)))))))).).))))))))”, the Tm amounted to 60.2 °C.

Turning to “CGACGTGCCCAATGTGCTG+CAGCACATTTAGCACGTCG ((((((((..(((((((((+)))))))))..))))))))”, the melting temperature (Tm) amounted to 50.4 °C.

Take “CGACGTGCGCGATGTGCTG+CAGCACATAGCGCACGTCG ((((((((((.((((((((+)))))))).))))))))))”: the Tm was 63 °C.

For “CGACGTGCTAAATGTGCTG+CAGCACATAAAGCACGTCG (((((((((..((((((((+))))))))..)))))))))”, the Tm was found to be 53.1 °C.

For “CGACGTGCGACATGTGCTG+CAGCACATTTGGCACGTCG ((((((((.(.((((((((+)))))))).).))))))))”, the Tm amounted to 50.6 °C.

As to “CGACGTGCGTGATGTGCTG+CAGCACATACCGCACGTCG (((((((((..((((((((+))))))))..)))))))))”, the midpoint of thermal melting (Tm) is 55.3 °C.

For the substance “CGACGTGCTCGATGTGCTG+CAGCACATCGTGCACGTCG ((((((((.((((((((((+)))))))))).))))))))”, the melting temperature (Tm) is 59 °C.

Take “CGACGTGCAAAATGTGCTG+CAGCACATGTTGCACGTCG ((((((((((.((((((((+)))))))).))))))))))”: the Tm came out at 56.4 °C.

As to “CGACGTGCTTGATGTGCTG+CAGCACATGGAGCACGTCG (((((((((..((((((((+))))))))..)))))))))”, the midpoint of thermal melting (Tm) is 54 °C.

As for “CGACGTGCAGGATGTGCTG+CAGCACATTTCGCACGTCG ((((((((...((((((((+))))))))...))))))))”, the Tm is 51.1 °C.

Take “CGACGTGCGCCATGTGCTG+CAGCACATCATGCACGTCG ((((((((...((((((((+))))))))...))))))))”: the Tm amounted to 47.8 °C.

On to “CGACGTGCCCAATGTGCTG+CAGCACATGTAGCACGTCG ((((((((...((((((((+))))))))...))))))))”, for which the melting temperature (Tm) is 50.6 °C.

On to “CGACGTGCGGCATGTGCTG+CAGCACATTTCGCACGTCG (((((((((..((((((((+))))))))..)))))))))”, for which the Tm was found to be 53.4 °C.

Consider “CGACGTGCGGGATGTGCTG+CAGCACATTATGCACGTCG ((((((((...((((((((+))))))))...))))))))”, for which the Tm was determined as 51.8 °C.

With “CGACGTGCGGGATGTGCTG+CAGCACATAACGCACGTCG (((((((((..((((((((+))))))))..)))))))))”, the melting temperature (Tm) turned out to be 59.4 °C.

Take “CGACGTGCCGGATGTGCTG+CAGCACATGAAGCACGTCG ((((((((...((((((((+))))))))...))))))))”: the melting temperature (Tm) came out at 49.9 °C.

Regarding “CGACGTGCCACATGTGCTG+CAGCACATCACGCACGTCG ((((((((...((((((((+))))))))...))))))))”, the melting temperature (Tm) came out at 46.2 °C.

In the case of “CGACGTGCACAATGTGCTG+CAGCACATAAGGCACGTCG ((((((((...((((((((+))))))))...))))))))”, the melting temperature (Tm) was 46.8 °C.

For the substance “CGACGTGCGTGATGTGCTG+CAGCACATATAGCACGTCG ((((((((...((((((((+))))))))...))))))))”, the midpoint of thermal melting (Tm) was 52.5 °C.

“CGACGTGCAGTATGTGCTG+CAGCACATATGGCACGTCG ((((((((..(((((((((+)))))))))..))))))))”: the Tm was 52.7 °C.

Turning to “CGACGTGCCGCATGTGCTG+CAGCACATGTTGCACGTCG ((((((((..(((((((((+)))))))))..))))))))”, the Tm stood at 54.5 °C.
